Where two headings read alike, the source gives them in different places.

The target in one assay is T1, APC8910-AA.
T1 chain: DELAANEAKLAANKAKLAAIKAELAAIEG
As to the kind of experiment: two-hybrid library CCmax.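 Further: natural log of median RNA to DNA barcode read ratio; higher means stronger binding.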

In the next assay the target is T2, APC9096-AA.
T2 chain: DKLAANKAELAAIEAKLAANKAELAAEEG
The assay is described as follows: two-hybrid library CCmax.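 Further: natural log of median RNA to DNA barcode read ratio; higher means stronger binding.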

In another assay the target is T3, APC9319-AA.
T3 chain: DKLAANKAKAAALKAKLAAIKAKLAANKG
The assay is described as follows: two-hybrid library CCmax.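 Further: natural log of median RNA to DNA barcode read ratio; higher means stronger binding.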 Particulars: mean of both orientations.

The target in the next assay is T4, 4H918-bH.
T4 chain: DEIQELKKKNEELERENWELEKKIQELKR
As to the kind of experiment: two-hybrid library CCNG1.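 Further: natural log of median RNA to DNA barcode read ratio; higher means stronger binding.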

In the next assay the target is T5, 4H932-bA.
T5 chain: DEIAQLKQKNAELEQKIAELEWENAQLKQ
The assay is described as follows: two-hybrid library CCNG1.

A further assay deals with T6, 4H953-bH.
T6 chain: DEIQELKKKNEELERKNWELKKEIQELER
As to the kind of experiment: two-hybrid library CCNG1.

A further assay addresses T7, 4H967-bH.
T7 chain: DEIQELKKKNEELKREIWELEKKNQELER
As to the kind of experiment: two-hybrid library CCNG1.

In another assay the target is T8, 4H968-bH.
T8 chain: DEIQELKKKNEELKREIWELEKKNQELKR
As to the kind of experiment: two-hybrid library CCNG1.

Another assay has as its target T9, 4H340-AA.
T9 chain: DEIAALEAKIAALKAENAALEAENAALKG
The assay is described as follows: two-hybrid library CCmax.

The target of another assay is T10, 4H3413-AA.
T10 chain: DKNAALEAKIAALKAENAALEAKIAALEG
As to the kind of experiment: two-hybrid library CCmax. Particulars: mean of both orientations.

The next assay concerns the target T11, 4H3588-AA.
T11 chain: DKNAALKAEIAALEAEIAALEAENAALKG
The assay is described as follows: two-hybrid library CCmax. The following applies: mean of both orientations.

In another assay the target is T12, 4H3606-AA.
T12 chain: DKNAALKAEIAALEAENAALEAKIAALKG
The assay is described as follows: two-hybrid library CCmax. Particulars: mean of both orientations.

In another assay the target is T13, 4H3631-AA.
T13 chain: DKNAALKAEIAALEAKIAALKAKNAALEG
The assay is described as follows: two-hybrid library CCmax. Particulars: mean of both orientations.

The next assay deals with T14, 4H3697-AA.
T14 chain: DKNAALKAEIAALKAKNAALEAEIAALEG
The assay is described as follows: two-hybrid library CCmax. The following applies: mean of both orientations.

For another assay, the target named is T15, 4H3718-AA.
T15 chain: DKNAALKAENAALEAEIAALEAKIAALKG
The assay is described as follows: two-hybrid library CCmax. Particulars: mean of both orientations.

The target of the next assay is T16, 4H384-AA.
T16 chain: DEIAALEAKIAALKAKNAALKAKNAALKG
The assay is described as follows: two-hybrid library CCmax. Particulars: mean of both orientations.

The target in the next assay is T17, 4H3865-AA.
T17 chain: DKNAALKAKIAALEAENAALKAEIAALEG
As to the kind of experiment: two-hybrid library CCmax. The following applies: mean of both orientations.

The target in the next assay is T18, 4H697-AA.
T18 chain: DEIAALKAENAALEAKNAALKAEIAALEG
As to the kind of experiment: two-hybrid library CCmax. Particulars: mean of both orientations.

For another assay, the target named is T19, 4H982-AA.
T19 chain: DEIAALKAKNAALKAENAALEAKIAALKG
The assay is described as follows: two-hybrid library CCmax. Particulars: mean of both orientations.

For DELAANEAKLAANKAKLAAIKAELAAIEG [APC8910-AA], the interaction score with APC8910-AA is -2.88; in the assay with APC9096-AA (mean of both orientations), -2.09; with APC9319-AA, -2.07.

Regarding DEIQELKKKNEELERENWELEKKIQELKR [4H918-bH], the interaction score with 4H918-bH is 1.26; with 4H932-bA, -1.28; with 4H953-bH, -0.806; with 4H967-bH, -0.25; with 4H968-bH it was -0.174.

As to DKLAANKAELAAIEAKLAANKAELAAEEG [APC9096-AA], the figures for the interaction score in the assay with APC9096-AA and with APC9319-AA were -2.06 and -1.81, respectively.

Consider DEIAALEAKIAALKAENAALEAENAALKG [4H340-AA], for which the interaction score with 4H340-AA is 0.807; in the assay with 4H3413-AA, -1.52; with 4H3588-AA, -0.126; with 4H3606-AA, -0.46; with 4H3631-AA it was -0.0653; with 4H3697-AA, -1.98. Also, the interaction score in the assay with 4H3718-AA was -0.983; in the assay with 4H384-AA, 1.51; in the assay with 4H3865-AA, -1.26; with 4H697-AA it was -1.32; in the assay with 4H982-AA it was -1.24.
